What was measured:
[1] = target: T1, human CD94 expressed on cells (human primary NK cells in PBMCs; HEK cells expressing human CD94) (human, UniProt Q13241 1-179); assay: cell-based or functional assay
T1 sequence (looked up): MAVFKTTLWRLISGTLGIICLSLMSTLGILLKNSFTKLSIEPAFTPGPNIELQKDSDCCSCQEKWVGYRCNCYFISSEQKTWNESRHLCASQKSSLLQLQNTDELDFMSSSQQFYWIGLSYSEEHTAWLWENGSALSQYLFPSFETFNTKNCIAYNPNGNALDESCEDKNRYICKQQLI

[2] = target: T1, human CD94 expressed on cells (human …); assay: HLA-E tetramer blocking assay, flow cytometry on CD3-CD56+ NK cells in healthy donor PBMCs; antibody at one saturating concentration, blocked ligand PE-labelled HLA-E tetramer; percent blocking = 100-((percent HLA-E positive with antibody)/(percent HLA-E positive with isotype)*100)
Protocol: Healthy donor PBMCs were incubated with anti-CD94 antibodies. PE labeled HLA-E tetramer was then incubated with the cell and antibody mixture, and detected using flow cytometry. For HP-3B1, 131412, 12K45, DX22, 1M4 and 1E4, 2.5 μl of HLA-E tetramer reagent was used, while 5 μl was used for 18H3 and HP-3D9. Saturating concentrations of each antibody was used in this assay. The percent blocking was calculated as 100−((percent HLA-E positive for anti-CD94 antibody)/(percent HLA-E positive for isotype)*100).
Healthy donor PBMCs were seeded in 96-well plates at a density of 100,000 cells per well, incubated with human Fc block (Biolegend) and cell viability dye (Thermo Fisher) for 30 minutes on ice and protected from light. The cells were washed once with FACS buffer (PBS with 2% IgG low FBS). anti-CD94 antibodies at EC80 concentrations were incubated with cells for 30 minutes on ice and protected from light. After incubation with the anti-CD94 antibodies, the cells were washed and incubated with HLA-E tetramer PE (Creative Biolabs), anti-CD3 pacific blue-labelled, and anti-CD56 FITC-labelled antibodies (Biolegend) for 30 minutes on ice and protected from light. The cells then received a final wash in FACS buffer before quantification on the Cytoflex (Beckman Coulter). All data acquisition and fluorescence compensation were performed using CytoFlex (Beckman Coulter, Atlanta, GA). Data analysis was performed using FlowJo software. NK cells were identified through gating on lymphocytes on the forward and side scatter, followed by doublet and dead cell exclusion, and gated on the CD3−CD56+ population. HLA-E expression was then quantified on the CD3−CD56+NK cell population. Percent blocking was calculated as 100−((percent HLA-E positive for anti-CD94 antibody)/(percent HLA-E positive for isotype)*100).

[3] = target: T1, human CD94 expressed on cells (human …); assay: flow cytometry titration on CD3-CD56+ NK cells in healthy donor PBMCs; 'Affinity on Human NK Cells'; the filing derives these affinities as EC50 of titration curves (the 2.6nM of 18H3 is labelled EC50 in FIG. 1)
Protocol: Healthy donor PBMCs were seeded in 96 well plates at a density of 100,000 cells per well, incubated with human Fc block (Biolegend) and cell viability dye (Thermo Fisher) for 30 minutes on ice and protected from light. The cells were washed once with FACS buffer (PBS with 2% IgG low FBS). anti-CD94 antibodies at concentrations of 100 nM to 0.046 nM, 1:3-fold dilutions, were incubated with cells for 30 minutes on ice and protected from light. The cells were then washed and incubated with goat IgG anti-mouse Fey specific AF647 secondary antibody or goat (Fab)2 fragment anti-human Fey specific AF647 secondary antibody (Jackson immuno research), anti-CD3 pacific blue-labelled and anti-CD56 FITC-labelled antibodies (Biolegend) for 30 minutes on ice and protected from light. After incubation, the cells received a final wash in FACS buffer before quantification on the Cytoflex (Beckman Coulter). All data acquisition and fluorescence compensation were performed using CytoFlex (Beckman Coulter, Atlanta, GA). Data analysis was performed using FlowJo software. NK cells were identified through gating on lymphocytes on the forward and side scatter, followed by doublet and dead cell exclusion, and gated on the CD3−CD56+ population. CD94 expression was then quantified on the CD3−CD56+NK cell population. […]
The affinity of the antibody clones was also assessed by flow cytometry analysis.

[4] = target: T2, cynomolgus CD94 expressed on HEK293 cells (cynomolgus monkey, UniProt Q68VD4 1-179); assay: flow cytometry, cynomolgus CD94-expressing HEK293 cells
T2 construct: also called cyno-CD94; cynomolgus monkey CD94
T2 sequence: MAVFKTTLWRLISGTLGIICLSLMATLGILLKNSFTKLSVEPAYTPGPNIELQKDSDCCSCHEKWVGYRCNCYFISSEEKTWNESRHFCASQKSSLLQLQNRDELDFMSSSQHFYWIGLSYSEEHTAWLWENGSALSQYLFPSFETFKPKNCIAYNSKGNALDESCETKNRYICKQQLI
Excerpt: (§1) Anti-CD94 hybridoma supernatants were screened on cynomolgus CD94-expressing HEK293 cells by flow cytometry for cross-reactivity to cynomolgus CD94. HP-3D9 is a commercial anti-CD94 antibody that was used as a negative control. Mouse IgG1, IgG2a, IgG2b and IgG3 were used as negative controls. […] Commercially available anti-CD94 antibodies were used to test cynomolgus cross-reactivity. 18H3 was used as a positive control. The MFI of each antibody was normalized to the MFI of its respective isotype.
(§2) Cynomolgus CD94-expressing HEK293 cells were seeded in 96-well plates at a density of 100,000 cells per well, incubated with cell viability dye (Thermo Fisher) for 30 minutes on ice and protected from light. The cells were washed once with FACS buffer (PBS with 2% IgG low FBS). Hybridoma supernatants, anti-CD94 antibodies and isotype controls were incubated with cells for 30 minutes on ice and protected from light. […] After incubation, the cells received a final wash in FACS buffer before quantification on the Cytoflex (Beckman Coulter). All data acquisition and fluorescence compensation were performed using CytoFlex (Beckman Coulter, Atlanta, GA). […] CD94 expression was then quantified on this population. […]

[5] = target: T2, cynomolgus CD94 expressed on HEK293 …; assay: flow cytometry, hybridoma supernatant on cynomolgus CD94-expressing HEK293 cells
Excerpt: as §1, §2

[6] = target: T1, human CD94 expressed on cells (human …); assay: flow cytometry, HEK cells expressing human CD94, average of 2 runs
Protocol: (§3) Binding of the variant antibodies to HEK cells expressing human CD94 was also tested. Variants and ATX-130 antibodies were generated in human IgG1 form, and binding to HEK cells expressing human CD94 was assessed using flow cytometry. Experiments were run in duplicate, and the average EC50 of the 2 runs was calculated.

[7] = target: T1, human CD94 expressed on cells (human …); assay: flow cytometry, HEK cells expressing human CD94, 1st run
Protocol: as §3

[8] = target: T1, human CD94 expressed on cells (human …); assay: flow cytometry, HEK cells expressing human CD94, 2nd run
Protocol: as §3

Binder | EC50 [6] [nM] | EC50 [7] [nM] | EC50 [8] [nM] | other results
18H3-KIF (partially non-fucosylated human IgG1 18H3 produced in Expi-CHO cells with kifunensine) (antibody, V domains shown) VH: EVQLVQSGAEVKKPGESLKISCKGSGYRFTSYWIGWVRQMPGKGLEWMGIIYPGDSDTRYSPSFQGQVIISADKSITTAFLQWSSLKASDTAMYYCARPFDYGGSPGYFDYWGQGTLVTVSS VL: DIQMTQSPSTLSASVGDRVTITCRASQSIRSWLAWYQQKPGKAPKLLIYKASSLESGVPSRFSGSGSGTEFTLTISSLQPDDFATYYCQQYNTFWTFGQGTKVEIK | – | – | – | IC50 of CLPD-NK leukemic cell depletion, ADCC assay with CLPD-NK patient PBMCs [1]: 0.059 µg/mL; IC50 of NK cell depletion, ADCC assay with healthy donor PBMCs [1]: 0.02 µg/mL
anti-CD94 antibody clone 1M4 (antibody, V domains shown) VH: QLVESGGGLVQPGGSLRLACAASGFTFSNYAMNWVRQAPGKGLEWVSVISGSGDTTYCADSVKGRFTISRDNSKNTLHLQLNSLRAEDTAVYYCAKNCYGSGSYYNHFDYWGQGTLVTVSS VL: not shown | – | – | – | percent decrease in MFI (antibody internalization assay), comparing 0.5 hours to 24 hours at 37° C. [1]: 32%; HLA-E Blocking [2]: 0%; EC50 [3]: 7 nM; binding result [4]: binds
anti-CD94 antibody clone 1E4 (antibody, V domains shown, also called fucosylated 1E4) VH: QVTLRESGPALVKPTQTLTLTCTFSGFSLSTSDLCVSWIRQPPGKALEWLALIDWNDDKYYSTSLQTRLTISKDTSKNQVVLTMTNMDPVDTATYYCARTIAAAGPYDAFDIWGQGTMVTVSS VL: not shown | – | – | – | percent decrease in MFI (antibody internalization assay), comparing 0.5 hours to 24 hours at 37° C. [1]: 18%; HLA-E Blocking [2]: 0%; EC50 [3]: 75 nM; binding result [5]: binds
Ab.29 hG1 (antibody, V domains shown, Human IgG1 form; also called Ab.29 human IgG1) VH: EVQLLESGGGLVKPGGSLRLSCAASGFTFSSYSMNWVRQAPGKGLEWVSSISTSSNFIYYADSVKGRFTISRDNAKNSLYLQMNSLRAEDTAVYYCARDLGRYYYYMDVWGKGTTVTVSS VL: DIVMTQSPSSLSASVGDRVTITCRASQSISSWLAWYQQKPGKVPKSLIYAASSLQSGVPSKFSGSGSGTDFTLTISSLQPEDVATYYCQKYNSAPFTFGPGTKVDIK | 0.16 | 0.18 | 0.13 | –
Ab.31 hG1 (antibody, V domains shown, Human IgG1 form; also called Ab.31 human IgG1) VH: EVQLLESGGGLVKPGGSLRLSCAASGFTFSSYSMNWVRQAPGKGLEWVSSISTSSNFIYYADSVKGRFTISRDNAKNSLYLQMNSLRAEDTAVYYCARDLGRYYYYMDVWGKGTTVTVSS VL: DIVMTQSPSSLSASVGDRVTITCRASQSISSWLAWYQQKPGKAPKSLIYAASSLQSGVPSRFSGSGSGTDFTLTISSLQPEDVATYYCQKYNSAPFTFGPGTKVDIK | 0.11 | 0.1 | 0.12 | –
Ab.32 hG1 (antibody, V domains shown, Human IgG1 form; also called Ab.32 human IgG1) VH: EVQLLESGGGLVKPGGSLRLSCAASGFTFSSYSMNWVRQAPGKGLEWVSSISTSSNFIYYADSVKGRFTISRDNAKNSLYLQMNSLRAEDTAVYYCARDLGRYYYYMDVWGKGTTVTVSS VL: DIVMTQSPSSLSASVGDRVTITCRASQSISSWLAWYQQKPGKAPKSLIYAASSLQSGVPSKFSGSGSGTDFTLTISSLQPEDFATYYCQKYNSAPFTFGPGTKVDIK | 0.12 | 0.12 | 0.11 | –
Ab.33 hG1 (antibody, V domains shown, Human IgG1 form; also called Ab.33 human IgG1) VH: EVQLLESGGGLVKPGGSLRLSCAASGFTFSSYSMNWVRQAPGKGLEWVSSISTSSNFIYYADSVKGRFTISRDNAKNSLYLQMNSLRAEDTAVYYCARDLGRYYYYMDVWGKGTTVTVSS VL: DIVMTQSPSSLSASVGDRVTITCRASQSISSWLAWYQQKPGKAPKSLIYAASSLQSGVPSKFSGSGSGTDFTLTISSLQPEDVATYYCQQYNSAPFTFGPGTKVDIK | 0.19 | 0.25 | 0.13 | –
Ab.34 hG1 (antibody, V domains shown, Human IgG1 form; also called Ab.34 human IgG1) VH: EVQLLESGGGLVKPGGSLRLSCAASGFTFSSYSMNWVRQAPGKGLEWVSSISTSSNFIYYADSVKGRFTISRDNAKNSLYLQMNSLRAEDTAVYYCARDLGRYYYYMDVWGKGTTVTVSS VL: DIVMTQSPSSLSASVGDRVTITCRASQSISSWLAWYQQKPGKAPKSLIYAASSLQSGVPSKFSGSGSGTDFTLTISSLQPEDVATYYCQKYNSYPFTFGPGTKVDIK | 0.15 | 0.16 | 0.13 | –
